The values that follow come from patent publication US20050260657A1 (UNIVERSITY OF TOKYO, published 2005).

The chains are these.
B1: MBP-ERp44 (maltose binding protein fused ERp44) (other, mouse, UniProt Q9D1Q6 30-406, looked up, not shown: large carriers)
chain: EIASLDSENIDEILNNADVALVNFYADWCRFSQMLHPIFEEASDVIKEEYPDKNQVVFARVDCDQHSDIAQRYRISKYPTLKLFRNGMMMKREYRGQRSVKALADYIRQQKSNPVHEIQSLDEVTNLDRSKRNIIGYFEQKDSENYRVFERVASILHDDCAFLSAFGDLSKPERYNGDNVIYKPPGRSAPDMVYLGSMTNFDVTYNWIQDKCVPLVREITFENGEELTEEGLPFLILFHMKDDTESLEIFQNEVARQLISEKGTINFLHADCDKFRHPLLHIQKTPADCPVIAIDSFRHMYVFGDFKDVLIPGKLKQFVFDLHSGKLHREFHHGPDPTDTAPGEQDQDVASSPPESSFQKLAPSEYRYTLLRDRDEL
B2: HA-ERp44 (haemagglutinin A epitope-tagged ERp44) (other, mouse, UniProt Q9D1Q6 30-406, looked up, not shown: small tags and cut ends)
chain: B1 chain
notes: whole, on cells; tagged vectors made by PCR
B3: ERp44-C58S (other, UniProt Q9D1Q6 30-406, looked up)
chain: B1 chain with C29S
notes: whole, on cells
B4: GST-1L3V (glutathione S-transferase fused L3V domain of IP3R1) (other, not shown: a dimerising Fc or GST; large carriers; small tags and cut ends)
chain: KDDFILEVDRLPNETAVPETGESLANDFLYSDVCRVETGENCTSPAPKEELLPAEETEQDKEHTCE
notes: Expressed in E. coli, purified on GSH-Sepharose; also called GST-L3V

Assay [1] addresses IP3R1 of mouse cerebellar microsomes in planar lipid bilayer (mouse, UniProt P11881 1-2749). Put plainly: cell-based or functional assay.
In assay [2] the target is T1, GFP-IP3R1 (IP3R1 fused N-terminally with green fluorescent protein) (UniProt P11881 1-2749).
T1 construct: Expressed in COS-7 or DT40-TKO cells; also called GFP-IP3R1-N; not shown: green fluorescent protein
Description: co-immunoprecipitation from COS-7 cells exposed to ATP (activator of purinergic receptors), DSP crosslink.

Assay [3] has as its target T2, IP3R1 (inositol 1,4,5-trisphosphate receptor type 1), untagged, expressed in cells (mouse, UniProt P11881 1-2749).
T2 construct: whole, on cells; ER membrane channel; species is printed for the DT40-KMN60 line, not for the COS-7 vector; also called mouse IP3R1 in DT40-KMN60 cells
Description: interaction in transfected cells; data not shown.

The target in assay [4] is MBP (maltose binding protein alone) (UniProt P0AEX9 27-392 = MBP). Put plainly: GST pull-down, pH 5.2, 4 mM Ca2+.
Assay [5] deals with B1. Description: GST pull-down, acid buffer with Ca2+.

Where a chain is given by its changes, count along the chain named. In names and notes the source's numbering stands.

T1 sequence (P11881 whole entry, the tested form may be a part): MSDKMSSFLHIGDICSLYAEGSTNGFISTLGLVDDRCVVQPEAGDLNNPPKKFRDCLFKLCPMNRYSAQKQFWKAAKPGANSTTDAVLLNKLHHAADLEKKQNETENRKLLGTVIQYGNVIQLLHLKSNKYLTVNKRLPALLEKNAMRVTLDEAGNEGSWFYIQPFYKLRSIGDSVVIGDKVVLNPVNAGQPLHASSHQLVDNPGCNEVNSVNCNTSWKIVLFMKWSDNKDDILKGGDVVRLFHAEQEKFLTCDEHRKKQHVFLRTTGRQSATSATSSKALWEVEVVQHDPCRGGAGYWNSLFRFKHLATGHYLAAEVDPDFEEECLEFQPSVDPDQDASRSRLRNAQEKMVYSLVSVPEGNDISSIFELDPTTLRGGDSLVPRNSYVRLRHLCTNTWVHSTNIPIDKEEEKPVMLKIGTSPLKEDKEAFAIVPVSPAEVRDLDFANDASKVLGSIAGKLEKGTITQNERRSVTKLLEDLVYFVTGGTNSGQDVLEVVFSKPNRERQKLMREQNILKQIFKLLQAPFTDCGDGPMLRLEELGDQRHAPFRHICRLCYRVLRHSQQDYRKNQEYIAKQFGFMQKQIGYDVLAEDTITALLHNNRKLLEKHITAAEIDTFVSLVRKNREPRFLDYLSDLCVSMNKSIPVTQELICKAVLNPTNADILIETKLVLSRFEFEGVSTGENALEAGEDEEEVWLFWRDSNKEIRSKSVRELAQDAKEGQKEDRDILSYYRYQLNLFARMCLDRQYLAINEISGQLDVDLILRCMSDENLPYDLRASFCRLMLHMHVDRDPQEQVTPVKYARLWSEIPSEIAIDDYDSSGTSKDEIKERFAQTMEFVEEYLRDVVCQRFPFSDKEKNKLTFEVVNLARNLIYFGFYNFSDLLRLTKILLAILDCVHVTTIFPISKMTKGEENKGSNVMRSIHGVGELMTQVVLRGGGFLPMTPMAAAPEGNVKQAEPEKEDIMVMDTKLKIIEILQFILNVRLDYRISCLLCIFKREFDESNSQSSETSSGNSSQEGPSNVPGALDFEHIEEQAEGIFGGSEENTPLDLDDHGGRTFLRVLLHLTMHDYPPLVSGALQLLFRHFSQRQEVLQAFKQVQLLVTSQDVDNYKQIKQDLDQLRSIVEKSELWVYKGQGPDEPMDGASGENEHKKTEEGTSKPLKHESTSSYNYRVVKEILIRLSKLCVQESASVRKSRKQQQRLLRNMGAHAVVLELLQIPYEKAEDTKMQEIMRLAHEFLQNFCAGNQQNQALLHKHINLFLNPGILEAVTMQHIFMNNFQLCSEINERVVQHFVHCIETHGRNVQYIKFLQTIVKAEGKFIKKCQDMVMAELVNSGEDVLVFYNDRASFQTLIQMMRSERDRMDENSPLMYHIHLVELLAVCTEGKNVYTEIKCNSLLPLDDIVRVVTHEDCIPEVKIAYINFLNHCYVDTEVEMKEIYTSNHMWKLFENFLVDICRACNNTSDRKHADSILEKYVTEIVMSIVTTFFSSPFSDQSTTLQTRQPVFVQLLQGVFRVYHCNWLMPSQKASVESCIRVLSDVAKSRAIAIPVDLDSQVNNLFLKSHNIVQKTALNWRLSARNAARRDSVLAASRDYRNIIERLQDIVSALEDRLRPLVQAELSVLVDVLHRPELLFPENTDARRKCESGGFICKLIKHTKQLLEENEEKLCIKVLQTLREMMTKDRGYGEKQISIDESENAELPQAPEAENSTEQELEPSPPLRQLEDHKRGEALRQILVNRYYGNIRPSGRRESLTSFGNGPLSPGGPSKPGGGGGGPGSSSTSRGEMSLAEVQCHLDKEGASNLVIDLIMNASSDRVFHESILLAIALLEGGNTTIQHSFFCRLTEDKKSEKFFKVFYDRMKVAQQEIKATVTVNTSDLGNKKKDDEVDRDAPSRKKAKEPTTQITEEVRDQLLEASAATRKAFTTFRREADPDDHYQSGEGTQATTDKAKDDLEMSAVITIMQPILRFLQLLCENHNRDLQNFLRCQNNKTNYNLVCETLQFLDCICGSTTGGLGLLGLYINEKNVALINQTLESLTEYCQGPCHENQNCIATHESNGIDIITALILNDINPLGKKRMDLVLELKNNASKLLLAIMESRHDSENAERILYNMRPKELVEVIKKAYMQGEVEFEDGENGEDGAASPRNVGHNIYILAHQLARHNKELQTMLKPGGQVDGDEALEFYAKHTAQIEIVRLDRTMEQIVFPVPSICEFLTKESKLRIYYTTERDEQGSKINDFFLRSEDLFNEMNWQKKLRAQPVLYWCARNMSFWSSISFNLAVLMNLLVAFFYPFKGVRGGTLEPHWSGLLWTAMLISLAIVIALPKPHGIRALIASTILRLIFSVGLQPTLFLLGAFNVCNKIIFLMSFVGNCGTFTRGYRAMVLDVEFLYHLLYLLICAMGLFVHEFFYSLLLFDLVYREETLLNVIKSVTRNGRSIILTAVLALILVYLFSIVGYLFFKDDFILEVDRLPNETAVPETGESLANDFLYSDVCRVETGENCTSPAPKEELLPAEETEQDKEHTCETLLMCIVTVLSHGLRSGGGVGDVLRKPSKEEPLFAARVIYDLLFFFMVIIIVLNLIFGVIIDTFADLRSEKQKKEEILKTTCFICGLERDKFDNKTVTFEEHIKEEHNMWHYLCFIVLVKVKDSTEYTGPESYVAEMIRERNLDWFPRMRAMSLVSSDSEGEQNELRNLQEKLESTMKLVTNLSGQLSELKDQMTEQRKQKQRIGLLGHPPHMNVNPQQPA

Consider B1, for which the “Single-channel open probability (IC50)” value in assay [1] turned out to be 1000 nM.

B2: in assay [2], the “fold increase of GFP-IP3R1 co-precipitated with HA-ERp44 after the treatment against untreated cells” value is roughly 2 fold.

As to B3, in assay [3], the binding result was “binds”.

As to B4, the binding result is given as “no binding” in assay [4] and “binds” in assay [5].
